{"source": "paper PMC4180972", "biological_target": "Flag-TIN2 (human) (UniProt Q9BSI4)", "sequence (Q9BSI4 whole entry)": "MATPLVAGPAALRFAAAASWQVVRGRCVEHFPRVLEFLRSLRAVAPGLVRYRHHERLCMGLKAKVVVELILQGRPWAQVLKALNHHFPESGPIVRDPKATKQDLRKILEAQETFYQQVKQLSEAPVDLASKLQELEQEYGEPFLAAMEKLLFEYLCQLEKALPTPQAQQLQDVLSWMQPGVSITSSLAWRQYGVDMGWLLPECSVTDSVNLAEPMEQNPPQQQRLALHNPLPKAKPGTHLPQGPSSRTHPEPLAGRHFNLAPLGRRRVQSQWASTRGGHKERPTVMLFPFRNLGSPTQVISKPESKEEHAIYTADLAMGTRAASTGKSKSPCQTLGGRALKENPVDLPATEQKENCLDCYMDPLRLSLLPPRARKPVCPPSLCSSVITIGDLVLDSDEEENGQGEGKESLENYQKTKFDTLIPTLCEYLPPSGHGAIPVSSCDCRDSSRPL", "experiment": "co-IP", "data": [{"substance": "Flag-tagged TPP1-P491T (from UniProt Q96AP0-3 1-458) (natural protein)", "values": [{"measurement": "fold reduction in TIN2 association against wild-type TPP1", "value": 2, "unit": "fold"}]}]}
